# Measurements published in patent publication US20230382991A1 (COMMISSARIAT A L ENERGIE ATOMIQUE ET AUX ENERGIES …, published 2023).
# B1: B1.2.1 monoclonal antibody (antibody, V domains shown)
# VH: EVQLVESGGGLVQPKGSLKLSCAASGFTFNTHAMHWVRQAPGKGLEWVARIRSKSSNYATFYADSVKDRFTISRDDSQSMLYLQMNNLKTEDTAIYFCVMVYYGNSPYYSMDYWGQGTSVTVSS
# VL: NIVMTQSPKSMSMSVGERVTLSCKASENVGTYVSWYQQKPEQSPKLLIYGASNRYTGVPDRFTGSGSATDFTLIINNIQAEDLADYHCGQSYSSPLTFGAGTKLELK
# notes: Mouse monoclonal antibody purified from hybridoma supernatant (immunisation with mLILRB1.2-Fc); also called B1.2.1 mAb
# B2: B1.2.2 monoclonal antibody (antibody, V domains shown)
# VH: EVQLVESGGGLVKPGGSLKLSCAASGFTFSDYGMHWVRQAPEKGLEWVAYISSGSSTSYYADTVKGRFTISRDDAKNTLFLQMTSLRSEDTAMYYCARPGSNWDVYYAMDYWGQGTSVTVSS
# VL: DIVLTQSPASLAVSLGQRATISCRASQSVSTSSYSYMHWYQQKPGQPPKLLIKNASNLESGVPARFSGSGSGTDFTLNIHPVEEEDTATYYCQHSWEIPFTFGGGTKLEIK
# notes: Mouse monoclonal antibody purified from hybridoma supernatant (immunisation with mLILRB1.2-Fc); also called B1.2.2 mAb; clone 20G10
# B3: BF14 humanized antagonist antibody of Family AB2 (antibody, V domains shown)
# VH: QVQLVESGGGVVQPGRSLRLSCAASGFTFSDYGMHWVRQAPGKGLEWVAYISSGSSTSYYADTVKGRFTISRDDSKNTLYLQMNSLRAEDTAVYYCARPGSNWDVYYAMDYWGQGTLVTVSS
# VL: DIQLTQSPSSLSASVGDRVTITCRASQSVSTSSYSYMHWYQQKPGKAPKLLIKNASNLESGVPSRFSGSGSGTDFTLTISSLQPEDFATYYCQHSWEIPFTFGPGTKVDIK
# Experiments:
# [1] = target: T1, recombinant human LILRB4-Fc fusion protein (human, UniProt Q8NHJ6 22-259); assay: EIA on hLILR-Fc captured by goat anti-human Ig on the plate; AChE-labelled goat anti-mouse antibody; absorbance (axis printed 'DO 141nm'); no blank curve on the sheet
# T1 construct: not shown: Fc part of the fusion bought from R&D Systems
# [2] = target: T2, recombinant human LILRA2-Fc fusion protein (human, UniProt Q8N149 24-449); assay: as above
# T2 construct: not shown: Fc part of the fusion bought from R&D Systems
# [3] = target: T3, recombinant human LILRB3-Fc fusion protein (human, UniProt O75022 24-443); assay: as above
# T3 construct: not shown: Fc part of the fusion bought from R&D Systems
# [4] = target: T4, recombinant human LILRA4-Fc fusion protein (human, UniProt P59901 24-446); assay: as above
# T4 construct: not shown: Fc part of the fusion bought from R&D Systems
# [5] = target: T5, recombinant human LILRA5-Fc fusion protein (human, UniProt A6NI73 42-268); assay: as above
# T5 construct: not shown: Fc part of the fusion bought from R&D Systems
# [6] = target: T6, recombinant human LILRB5-Fc fusion protein (human, UniProt O75023 24-458); assay: as above
# T6 construct: not shown: Fc part of the fusion bought from R&D Systems
# [7] = target: T7, recombinant human LILRB2-Fc fusion protein (human, UniProt Q8N423 22-457); assay: biolayer interferometry (ForteBio), mAb on anti-mouse Fc sensor, LILR-Fc in solution, 1:1 global fit
# T7 construct: hLILR-Fc purchased from R&D Systems; also called hLILRB2-Fc; hLILRB2; not shown: Fc part of the fusion bought from R&D Systems; detected with anti-human IgG
# [8] = target: T8, cynomolgus macaque LILRB1.2-Fc fusion protein (cynomolgus macaque; human); assay: as above
# T8 construct: extracellular domain; Produced in HEK293T cells; also called mLILRB1.2; mLILRB1.2-Fc
# [9] = target: T9, recombinant human LILRA1-Fc fusion protein (human, UniProt O75019 17-461); assay: as above
# T9 construct: hLILR-Fc purchased from R&D Systems; also called hLILRA1; hLILRA1-Fc; not shown: Fc part of the fusion bought from R&D Systems; captured by anti-human immunoglobulin
# [10] = target: T10, cynomolgus macaque LILRB2.2-Fc fusion protein (cynomolgus macaque; human); assay: as above
# T10 construct: extracellular domain; Produced in HEK293T cells; also called mLILRB2.2; mLILRB2.2-Fc
# [11] = target: T11, recombinant human LILRA3-Fc fusion protein (human, UniProt Q8N6C8 24-439); assay: as above
# T11 construct: hLILR-Fc purchased from R&D Systems; also called hLILRA3; hLILRA3-Fc; not shown: Fc part of the fusion bought from R&D Systems
# [12] = target: T12, recombinant human LILRB1-Fc fusion protein (human, UniProt Q8NHL6 24-458); assay: as above
# T12 construct: hLILR-Fc purchased from R&D Systems; also called hLILRB1-Fc; hLILRB1; not shown: Fc part of the fusion bought from R&D Systems; detected with anti-human IgG
# [13] = target: T13, cynomolgus macaque LILRB1.1-Fc fusion protein (cynomolgus macaque; human); assay: as above
# T13 construct: extracellular domain; Produced in HEK293T cells; also called mLILRB1.1; mLILRB1.1-Fc
# [14] = target: T14, cynomolgus macaque LILRB2.1-Fc fusion protein (cynomolgus macaque; human); assay: as above
# T14 construct: extracellular domain; Produced in HEK293T cells; also called mLILRB2.1; mLILRB2.1-Fc
# [15] = target: T15, human LILRB1 expressed on stably transduced CHO cells (human, UniProt Q8NHL6 24-650); assay: flow cytometry, same method as FIG. 1B (CHO cells expressing human LILRB1)
# T15 construct: whole, on cells; also called hLILRB1; CHO hLILRB1 cell line
# T15 sequence (Q8NHL6 24-650): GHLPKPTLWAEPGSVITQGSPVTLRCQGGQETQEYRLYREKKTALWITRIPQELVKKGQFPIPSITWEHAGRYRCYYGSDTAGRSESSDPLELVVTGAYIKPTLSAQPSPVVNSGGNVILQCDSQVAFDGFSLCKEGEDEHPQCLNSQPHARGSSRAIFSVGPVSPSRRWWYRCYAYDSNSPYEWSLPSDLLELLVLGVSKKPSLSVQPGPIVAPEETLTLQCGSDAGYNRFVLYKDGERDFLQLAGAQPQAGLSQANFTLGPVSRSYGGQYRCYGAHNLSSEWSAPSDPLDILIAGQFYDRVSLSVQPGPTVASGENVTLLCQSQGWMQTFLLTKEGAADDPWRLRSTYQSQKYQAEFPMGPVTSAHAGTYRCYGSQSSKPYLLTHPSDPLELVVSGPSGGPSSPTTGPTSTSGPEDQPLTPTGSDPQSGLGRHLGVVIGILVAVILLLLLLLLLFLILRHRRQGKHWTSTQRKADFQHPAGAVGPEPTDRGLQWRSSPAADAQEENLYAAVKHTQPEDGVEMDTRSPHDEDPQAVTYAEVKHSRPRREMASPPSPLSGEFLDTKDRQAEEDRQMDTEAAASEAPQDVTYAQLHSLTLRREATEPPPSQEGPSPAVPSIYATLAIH
# T6 sequence (O75023 24-458): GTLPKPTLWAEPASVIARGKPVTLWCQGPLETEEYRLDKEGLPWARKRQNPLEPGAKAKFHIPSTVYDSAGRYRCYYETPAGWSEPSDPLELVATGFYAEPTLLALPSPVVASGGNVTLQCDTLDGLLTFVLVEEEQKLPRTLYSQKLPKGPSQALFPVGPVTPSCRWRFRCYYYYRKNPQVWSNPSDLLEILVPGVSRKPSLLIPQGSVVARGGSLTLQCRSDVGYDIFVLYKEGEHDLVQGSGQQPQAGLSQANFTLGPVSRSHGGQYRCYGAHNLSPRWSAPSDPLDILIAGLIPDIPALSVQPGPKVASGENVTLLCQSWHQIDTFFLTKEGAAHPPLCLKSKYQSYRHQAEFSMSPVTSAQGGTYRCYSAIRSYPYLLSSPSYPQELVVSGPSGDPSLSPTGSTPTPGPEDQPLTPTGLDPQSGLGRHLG
# T2 sequence (Q8N149 24-449): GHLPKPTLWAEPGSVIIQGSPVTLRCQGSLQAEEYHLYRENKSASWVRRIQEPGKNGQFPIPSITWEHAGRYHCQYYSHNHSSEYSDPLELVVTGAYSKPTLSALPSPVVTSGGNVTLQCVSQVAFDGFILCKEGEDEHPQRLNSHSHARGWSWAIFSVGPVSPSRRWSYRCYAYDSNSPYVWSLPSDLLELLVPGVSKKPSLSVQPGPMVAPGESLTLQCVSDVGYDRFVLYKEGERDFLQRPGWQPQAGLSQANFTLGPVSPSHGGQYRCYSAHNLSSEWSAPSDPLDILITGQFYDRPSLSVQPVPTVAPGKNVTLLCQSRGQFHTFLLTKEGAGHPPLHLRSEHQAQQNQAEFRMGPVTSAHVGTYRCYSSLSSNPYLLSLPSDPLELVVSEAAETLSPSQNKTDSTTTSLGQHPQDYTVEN
# T5 sequence (A6NI73 42-268): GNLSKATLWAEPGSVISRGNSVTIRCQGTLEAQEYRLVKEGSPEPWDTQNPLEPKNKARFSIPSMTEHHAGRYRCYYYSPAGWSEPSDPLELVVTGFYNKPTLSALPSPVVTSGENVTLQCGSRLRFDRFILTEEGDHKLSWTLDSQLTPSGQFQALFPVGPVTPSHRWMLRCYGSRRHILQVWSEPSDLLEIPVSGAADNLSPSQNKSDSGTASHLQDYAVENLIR
# T4 sequence (P59901 24-446): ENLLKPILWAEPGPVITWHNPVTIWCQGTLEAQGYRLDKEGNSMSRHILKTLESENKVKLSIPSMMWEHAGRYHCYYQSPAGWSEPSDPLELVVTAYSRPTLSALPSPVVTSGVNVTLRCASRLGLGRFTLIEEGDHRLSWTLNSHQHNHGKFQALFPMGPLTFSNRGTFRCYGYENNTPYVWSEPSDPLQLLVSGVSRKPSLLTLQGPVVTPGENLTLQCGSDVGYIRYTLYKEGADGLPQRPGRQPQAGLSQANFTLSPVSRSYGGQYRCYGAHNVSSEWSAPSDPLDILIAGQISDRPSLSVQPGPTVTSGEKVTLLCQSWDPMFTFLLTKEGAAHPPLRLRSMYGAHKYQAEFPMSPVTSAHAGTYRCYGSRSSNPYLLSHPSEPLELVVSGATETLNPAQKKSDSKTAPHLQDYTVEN
# T12 sequence (Q8NHL6 24-458): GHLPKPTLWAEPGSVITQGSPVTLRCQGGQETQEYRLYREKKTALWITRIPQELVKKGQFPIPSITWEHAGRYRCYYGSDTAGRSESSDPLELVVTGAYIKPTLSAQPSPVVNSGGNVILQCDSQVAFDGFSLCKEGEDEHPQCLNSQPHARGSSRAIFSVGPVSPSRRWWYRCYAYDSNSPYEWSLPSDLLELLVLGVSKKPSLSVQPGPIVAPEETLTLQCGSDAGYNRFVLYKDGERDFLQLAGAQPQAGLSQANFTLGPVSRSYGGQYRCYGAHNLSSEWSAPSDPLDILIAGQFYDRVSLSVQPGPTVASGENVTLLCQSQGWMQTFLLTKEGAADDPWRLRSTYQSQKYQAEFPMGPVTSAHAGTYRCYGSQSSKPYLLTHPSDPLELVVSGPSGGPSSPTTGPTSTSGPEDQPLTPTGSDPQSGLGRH
# T9 sequence (O75019 17-461): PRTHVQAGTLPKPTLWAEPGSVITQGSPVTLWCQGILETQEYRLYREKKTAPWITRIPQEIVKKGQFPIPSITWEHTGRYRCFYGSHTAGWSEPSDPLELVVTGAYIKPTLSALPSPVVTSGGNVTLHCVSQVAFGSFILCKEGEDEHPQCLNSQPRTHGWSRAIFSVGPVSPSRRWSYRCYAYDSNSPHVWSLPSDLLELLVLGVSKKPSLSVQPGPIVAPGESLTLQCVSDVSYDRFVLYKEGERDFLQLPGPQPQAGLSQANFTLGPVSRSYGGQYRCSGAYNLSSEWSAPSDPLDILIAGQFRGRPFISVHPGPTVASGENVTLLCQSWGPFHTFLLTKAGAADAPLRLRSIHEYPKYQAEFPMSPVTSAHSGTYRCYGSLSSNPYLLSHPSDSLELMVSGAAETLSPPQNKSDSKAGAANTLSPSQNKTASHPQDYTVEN
# T11 sequence (Q8N6C8 24-439): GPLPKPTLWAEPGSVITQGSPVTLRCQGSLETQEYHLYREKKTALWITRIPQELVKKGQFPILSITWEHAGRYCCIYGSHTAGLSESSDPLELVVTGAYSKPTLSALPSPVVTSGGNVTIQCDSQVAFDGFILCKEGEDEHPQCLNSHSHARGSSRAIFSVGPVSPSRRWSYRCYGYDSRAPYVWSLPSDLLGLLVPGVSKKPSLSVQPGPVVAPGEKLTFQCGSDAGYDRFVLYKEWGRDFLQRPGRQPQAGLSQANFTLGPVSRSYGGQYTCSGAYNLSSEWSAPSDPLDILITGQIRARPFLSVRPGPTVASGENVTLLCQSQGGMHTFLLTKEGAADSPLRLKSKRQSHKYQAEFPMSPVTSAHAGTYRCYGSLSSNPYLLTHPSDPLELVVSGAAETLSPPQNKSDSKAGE
# T3 sequence (O75022 24-443): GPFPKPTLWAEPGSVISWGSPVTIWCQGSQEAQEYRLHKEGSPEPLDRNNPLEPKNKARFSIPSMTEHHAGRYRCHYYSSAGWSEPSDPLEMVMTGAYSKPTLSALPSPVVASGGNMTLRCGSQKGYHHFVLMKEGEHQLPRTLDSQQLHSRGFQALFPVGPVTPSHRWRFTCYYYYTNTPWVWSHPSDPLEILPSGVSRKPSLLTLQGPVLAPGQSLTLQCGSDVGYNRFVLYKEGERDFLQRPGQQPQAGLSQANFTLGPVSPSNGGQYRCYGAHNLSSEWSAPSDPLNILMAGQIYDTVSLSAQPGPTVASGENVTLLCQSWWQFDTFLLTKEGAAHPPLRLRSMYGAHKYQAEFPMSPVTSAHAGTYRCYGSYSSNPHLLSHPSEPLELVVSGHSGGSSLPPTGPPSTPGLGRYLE
# T7 sequence (Q8N423 22-457): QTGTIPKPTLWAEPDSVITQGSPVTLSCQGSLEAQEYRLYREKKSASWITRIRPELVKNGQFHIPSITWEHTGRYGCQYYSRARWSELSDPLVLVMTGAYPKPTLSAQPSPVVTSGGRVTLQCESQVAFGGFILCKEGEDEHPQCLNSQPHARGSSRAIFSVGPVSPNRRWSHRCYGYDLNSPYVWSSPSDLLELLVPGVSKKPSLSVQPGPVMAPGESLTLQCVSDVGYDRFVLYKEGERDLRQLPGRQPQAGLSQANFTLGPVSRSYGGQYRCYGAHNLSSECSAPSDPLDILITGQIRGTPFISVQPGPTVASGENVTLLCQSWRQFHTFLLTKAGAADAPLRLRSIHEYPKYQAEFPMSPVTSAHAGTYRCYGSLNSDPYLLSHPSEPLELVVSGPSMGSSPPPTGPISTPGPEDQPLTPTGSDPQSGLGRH
Binder,binding result [1],binding result [2],binding result [3],binding result [4],binding result [5],binding result [6],Kd [7],Kd [8],Kd [9],Kd [10],Kd [11],Kd [12],Kd [13],Kd [14],binding result [15]
B1,no binding (tested: 10 µg/ml),no binding (tested: 10 µg/ml),no binding (tested: 10 µg/ml),no binding (tested: 10 µg/ml),no binding (tested: 10 µg/ml),no binding (tested: 10 µg/ml),0.14 nM,0.014 nM,0.73 nM,2.9 nM,1.3 nM,0.53 nM,0.0039 nM,,
B2,no binding (tested: 10 µg/ml),no binding (tested: 10 µg/ml),no binding (tested: 10 µg/ml),no binding (tested: 10 µg/ml),no binding (tested: 10 µg/ml),no binding (tested: 10 µg/ml),,0.12 nM,0.37 nM,0.071 nM,3.2 nM,0.87 nM,3.6 nM,0.48 nM,
B3,,,,,,,,,,,,,,,binds
